For the assay, the target named is GST-tagged ANKRD1 recombinant protein (Homo sapiens (Human), UniProt Q15327). The assay can be described thus: GST pulldown with western blot.
Chain of GST-tagged ANKRD1 recombinant protein (Q15327 whole entry): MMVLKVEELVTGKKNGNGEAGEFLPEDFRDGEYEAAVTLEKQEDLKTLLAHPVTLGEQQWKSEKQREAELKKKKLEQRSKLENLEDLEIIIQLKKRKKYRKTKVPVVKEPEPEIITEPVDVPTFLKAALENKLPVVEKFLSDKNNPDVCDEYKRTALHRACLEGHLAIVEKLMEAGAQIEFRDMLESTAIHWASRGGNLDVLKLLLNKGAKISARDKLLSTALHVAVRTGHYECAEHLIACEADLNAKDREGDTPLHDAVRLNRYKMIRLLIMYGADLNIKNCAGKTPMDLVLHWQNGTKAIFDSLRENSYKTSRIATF

B1: HIS-tagged JUN (truncated form 1-241aa) (protein)
chain: MTAKMETTFYDDALNASFLPSESGPYGYSNPKILKQSMTLNLADPVGSLKPHLRAKNSDLLTSPDVGLLKLASPELERLIIQSSNGHITTTPTPTQFLCPKNVTDEQEGFAEGFVRALAELHSQNTLPSVTSAAQPVNGAGMVAPAVASVAGGSGSGGFSASLHSEPPVYANLSNFNPGALSSGGGAPSYGAAGLAFPAQPQQQQQPPHHLPQQMPVQHPRLQALKEEPQTVPEMPGETPP
Regarding B1, the binding result was “no binding”.

(Values after article PMC10838290 (2024).)
